Patent US20180298083A1

Assays:
[1] = target: HIV-1 YU2 gp120 (HIV-1 strain YU2) (UniProt P35961); test: competition ELISA on gp120 YU2, unlabelled CD4-Ig against CD4Ig-biotin
K282A (HIV-1) = test: gp120 capture ELISA
D457A (HIV-1) = test: gp120 capture ELISA
M475A (HIV-1) = test: gp120 capture ELISA
R476A (HIV-1) = test: gp120 capture ELISA
V372A (HIV-1) = test: gp120 capture ELISA
M373A (HIV-1) = test: gp120 capture ELISA
G471A (HIV-1) = test: gp120 capture ELISA
P369A (HIV-1) = test: gp120 capture ELISA
N280A (HIV-1) = test: gp120 capture ELISA
G473A (HIV-1) = test: gp120 capture ELISA
D279A (HIV-1) = test: gp120 capture ELISA
D167N (HIV-1) = test: gp120 capture ELISA
R469A (HIV-1) = test: gp120 capture ELISA
G366A (HIV-1) = test: gp120 capture ELISA
I467A (HIV-1) = test: gp120 capture ELISA
E370A (HIV-1) = test: gp120 capture ELISA
N262A (HIV-1) = test: gp120 capture ELISA
N197T (HIV-1) = test: gp120 capture ELISA
N332A (HIV-1) = test: gp120 capture ELISA
S365A (HIV-1) = test: gp120 capture ELISA
I371A (HIV-1) = test: gp120 capture ELISA
G367A (HIV-1) = test: gp120 capture ELISA
G472A (HIV-1) = test: gp120 capture ELISA
D474A (HIV-1) = test: gp120 capture ELISA
T283A (HIV-1) = test: gp120 capture ELISA
D368A (HIV-1) = test: gp120 capture ELISA

CD4-Ig (from UniProt P01730 26-203) (Fc fusion)
IC50 (read off the curve) [1]: 0.06 µg/mL
Binding affinity relative to WT (%) (K282A (HIV-1)): 53%
Binding affinity relative to WT (%) (D457A (HIV-1)): 3%
Binding affinity relative to WT (%) (M475A (HIV-1)): 117%
Binding affinity relative to WT (%) (R476A (HIV-1)): 79%
Binding affinity relative to WT (%) (V372A (HIV-1)): 73%
Binding affinity relative to WT (%) (M373A (HIV-1)): 91%
Binding affinity relative to WT (%) (G471A (HIV-1)): 141%
Binding affinity relative to WT (%) (P369A (HIV-1)): 54%
Binding affinity relative to WT (%) (N280A (HIV-1)): 75%
Binding affinity relative to WT (%) (G473A (HIV-1)): 0%
Binding affinity relative to WT (%) (D279A (HIV-1)): 49%
Binding affinity relative to WT (%) (D167N (HIV-1)): 58%
Binding affinity relative to WT (%) (R469A (HIV-1)): 7%
Binding affinity relative to WT (%) (G366A (HIV-1)): 7%
Binding affinity relative to WT (%) (I467A (HIV-1)): 115%
Binding affinity relative to WT (%) (E370A (HIV-1)): 5%
Binding affinity relative to WT (%) (N262A (HIV-1)): 2%
Binding affinity relative to WT (%) (N197T (HIV-1)): 25%
Binding affinity relative to WT (%) (N332A (HIV-1)): 57%
Binding affinity relative to WT (%) (S365A (HIV-1)): 34%
Binding affinity relative to WT (%) (I371A (HIV-1)): 12%
Binding affinity relative to WT (%) (G367A (HIV-1)): 3%
Binding affinity relative to WT (%) (G472A (HIV-1)): 2%
Binding affinity relative to WT (%) (D474A (HIV-1)): 45%
Binding affinity relative to WT (%) (T283A (HIV-1)): 55%
Binding affinity relative to WT (%) (D368A (HIV-1)): 5%
